Assay results: IntAct's records for PubMed 21556048

Target: ep300_human EP300 (UniProt Q09472)
Sequence (Q09472 whole entry): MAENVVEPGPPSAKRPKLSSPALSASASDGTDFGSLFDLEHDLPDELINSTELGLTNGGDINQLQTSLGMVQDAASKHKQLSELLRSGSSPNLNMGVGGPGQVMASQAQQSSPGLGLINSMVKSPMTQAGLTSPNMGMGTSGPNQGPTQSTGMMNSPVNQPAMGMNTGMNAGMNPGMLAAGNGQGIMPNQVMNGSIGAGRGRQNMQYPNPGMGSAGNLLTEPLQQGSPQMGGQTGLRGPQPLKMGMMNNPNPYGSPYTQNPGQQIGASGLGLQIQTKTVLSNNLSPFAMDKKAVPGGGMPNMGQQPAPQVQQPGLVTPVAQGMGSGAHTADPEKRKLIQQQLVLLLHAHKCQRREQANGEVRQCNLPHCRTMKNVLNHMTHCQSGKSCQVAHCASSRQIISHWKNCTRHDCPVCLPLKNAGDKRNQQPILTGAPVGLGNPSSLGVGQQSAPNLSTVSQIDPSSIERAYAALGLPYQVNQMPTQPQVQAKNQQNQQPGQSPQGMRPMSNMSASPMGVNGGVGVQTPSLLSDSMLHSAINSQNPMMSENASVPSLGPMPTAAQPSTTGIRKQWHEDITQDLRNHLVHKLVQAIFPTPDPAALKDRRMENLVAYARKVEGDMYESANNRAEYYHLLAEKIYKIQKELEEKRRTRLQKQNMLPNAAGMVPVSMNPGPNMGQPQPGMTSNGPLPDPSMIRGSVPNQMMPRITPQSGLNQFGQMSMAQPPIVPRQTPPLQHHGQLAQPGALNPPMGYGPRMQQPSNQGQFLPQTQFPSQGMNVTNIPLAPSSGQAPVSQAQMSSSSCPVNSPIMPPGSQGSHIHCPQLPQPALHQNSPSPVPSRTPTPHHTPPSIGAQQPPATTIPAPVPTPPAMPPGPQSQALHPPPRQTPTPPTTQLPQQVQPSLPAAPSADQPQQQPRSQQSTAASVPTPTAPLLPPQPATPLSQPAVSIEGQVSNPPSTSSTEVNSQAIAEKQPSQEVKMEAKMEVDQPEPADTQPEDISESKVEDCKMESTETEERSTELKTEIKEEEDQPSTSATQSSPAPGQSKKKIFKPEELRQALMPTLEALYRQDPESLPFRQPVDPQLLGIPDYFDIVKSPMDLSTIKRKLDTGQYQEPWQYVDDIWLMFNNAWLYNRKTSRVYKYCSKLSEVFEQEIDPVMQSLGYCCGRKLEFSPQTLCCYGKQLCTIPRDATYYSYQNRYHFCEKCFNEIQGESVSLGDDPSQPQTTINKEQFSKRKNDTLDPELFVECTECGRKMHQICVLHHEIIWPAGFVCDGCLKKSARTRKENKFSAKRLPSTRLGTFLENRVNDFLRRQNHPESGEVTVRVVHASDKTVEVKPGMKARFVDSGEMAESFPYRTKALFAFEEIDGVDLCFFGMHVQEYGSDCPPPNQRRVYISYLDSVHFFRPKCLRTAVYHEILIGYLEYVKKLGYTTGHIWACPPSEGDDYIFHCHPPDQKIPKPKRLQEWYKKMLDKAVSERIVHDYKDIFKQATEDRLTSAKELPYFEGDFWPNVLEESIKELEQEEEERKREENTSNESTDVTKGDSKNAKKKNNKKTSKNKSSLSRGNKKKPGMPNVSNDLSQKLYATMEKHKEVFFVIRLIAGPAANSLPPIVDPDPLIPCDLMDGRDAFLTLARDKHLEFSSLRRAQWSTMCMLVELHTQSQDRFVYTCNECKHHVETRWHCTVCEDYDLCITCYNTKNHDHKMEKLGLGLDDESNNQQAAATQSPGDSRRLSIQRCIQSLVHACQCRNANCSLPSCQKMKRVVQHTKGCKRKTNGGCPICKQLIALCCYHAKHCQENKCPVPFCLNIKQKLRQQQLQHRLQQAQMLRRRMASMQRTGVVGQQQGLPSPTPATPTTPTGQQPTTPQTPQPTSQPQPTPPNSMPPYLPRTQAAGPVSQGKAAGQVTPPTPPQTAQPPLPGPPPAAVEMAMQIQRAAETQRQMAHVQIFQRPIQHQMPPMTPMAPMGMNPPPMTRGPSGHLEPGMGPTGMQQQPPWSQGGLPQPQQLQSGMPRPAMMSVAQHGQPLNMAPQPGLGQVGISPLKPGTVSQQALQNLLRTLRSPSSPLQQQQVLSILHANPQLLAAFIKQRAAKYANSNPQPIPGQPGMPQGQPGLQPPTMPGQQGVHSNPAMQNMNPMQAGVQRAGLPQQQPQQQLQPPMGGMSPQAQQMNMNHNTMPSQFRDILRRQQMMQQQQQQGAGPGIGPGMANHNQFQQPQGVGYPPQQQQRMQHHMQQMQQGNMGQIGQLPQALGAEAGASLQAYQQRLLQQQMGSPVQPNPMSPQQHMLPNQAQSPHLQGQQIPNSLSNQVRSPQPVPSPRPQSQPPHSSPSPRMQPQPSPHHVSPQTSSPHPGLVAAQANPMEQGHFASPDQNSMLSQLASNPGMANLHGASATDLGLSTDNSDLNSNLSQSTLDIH

Myocyte-specific enhancer factor 2C (Homo sapiens), Q06413 T80A, sequence (Q06413 whole entry T80A): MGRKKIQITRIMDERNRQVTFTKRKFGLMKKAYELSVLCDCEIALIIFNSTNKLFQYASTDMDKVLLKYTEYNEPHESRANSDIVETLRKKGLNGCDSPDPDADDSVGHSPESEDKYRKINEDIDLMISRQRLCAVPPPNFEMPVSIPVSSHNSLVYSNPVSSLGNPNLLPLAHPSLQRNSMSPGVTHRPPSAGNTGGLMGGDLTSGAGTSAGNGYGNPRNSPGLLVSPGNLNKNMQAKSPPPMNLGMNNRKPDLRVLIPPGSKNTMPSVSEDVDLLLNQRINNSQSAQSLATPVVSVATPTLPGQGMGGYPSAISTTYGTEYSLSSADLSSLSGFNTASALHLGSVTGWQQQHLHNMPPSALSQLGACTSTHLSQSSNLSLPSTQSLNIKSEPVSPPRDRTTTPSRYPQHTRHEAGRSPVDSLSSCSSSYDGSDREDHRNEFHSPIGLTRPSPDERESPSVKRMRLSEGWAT

effect of a mutation on the interaction: decreasing interaction
Substance: Myocyte-specific enhancer factor 2C (Homo sapiens), Q06413 T80A
